Laboratory results published in patent US20250042994A1 (HAINAN SIMCERE ZAIMING PHARMACEUTICAL, published 2025).

T1: human CD19 exon1-3-His tag protein (human, UniProt P15391 20-186, limits assumed)
T1 construct: membrane-distal part of the extracellular region, made in HEK293E cells; not shown: His tag
T1 sequence (looked up): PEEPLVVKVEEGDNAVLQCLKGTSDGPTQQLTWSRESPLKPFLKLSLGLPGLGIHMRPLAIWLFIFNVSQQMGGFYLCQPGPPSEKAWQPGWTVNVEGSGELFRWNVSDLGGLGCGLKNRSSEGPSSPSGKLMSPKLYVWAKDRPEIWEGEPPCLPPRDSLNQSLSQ

T2: Human CD19-his protein (human, UniProt P15391 20-291)
T2 construct: bought protein; also called recombinant human CD19-His; CD19 full-length protein; not shown: His tag
T2 sequence (looked up): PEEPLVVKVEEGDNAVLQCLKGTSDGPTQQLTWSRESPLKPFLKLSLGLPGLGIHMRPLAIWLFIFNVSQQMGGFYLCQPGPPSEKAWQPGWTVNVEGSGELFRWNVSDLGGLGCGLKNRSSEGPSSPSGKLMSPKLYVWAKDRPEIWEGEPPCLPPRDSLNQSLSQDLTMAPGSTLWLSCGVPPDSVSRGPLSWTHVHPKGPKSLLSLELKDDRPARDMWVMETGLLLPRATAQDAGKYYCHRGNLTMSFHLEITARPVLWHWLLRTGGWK


Legend:
[1] = target: T1, human CD19 exon1-3-His tag protein; test: ELISA on coated human CD19 exon 1-3-His
Method: Human CD19-his protein (purchased from ACROBiosystems, catalog number: CD9-H52H2) was diluted with PBS to a final concentration of 4 μg/mL, and then added to a 96-well ELISA plate at 100 μl/well. The plate was sealed with a plastic film and incubated overnight at 4° C., the plate was washed 2 times with PBS the next day, and then a blocking solution [PBS+2% (w/w) BSA] was added for blocking at room temperature for 2 h. The blocking solution was poured off, and 100 nM gradiently diluted CD19 chimeric antibody or control antibody was added at 50 μl/well. After incubation at 37° C. for 2 h, the plate was washed 3 times with PBS. […] TMB substrate was added at 50 μl/well, and incubated at room temperature for 10 min, and then a stop solution (1.0 N HCl) was added at 50 μl/well. The OD450 nm values were read by an ELISA microplate reader (Multimode Plate Reader, EnSight, purchased from Perkin Elmer).
CD19 protein contains 4 exons in the extracellular region, in which exons 1-3 are located at the membrane-distal end and exon 4 is located at the membrane-proximal end. […] To identify the distribution of antigen binding epitopes of the chimeric antibodies, human CD19 exon 1-3-His (membrane-distal end) was used to coat at 2 μg/mL according to the ELISA method in example 5.1.

Human CD19-his protein = target: T2, Human CD19-his protein; test: SPR Biacore, Ab captured on Protein A, CD19-His analyte
Summary of the method: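 Apparent KD came from a Langmuir 1:1 fit of double-referenced sensorgrams. Recombinant human CD19-His analyte (top 200 nM, 1:1 serial dilution, 5 concentrations) flowed over Protein A-captured antibody for 240 s at 30 μl/min, then buffer for up to 600 s. Running buffer HBS-EP+ at 25 °C; regeneration with 10 mM glycine pH 1.5.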

| binding result [1] | Kd (Human CD19-his protein) [nM] | koff (Human CD19-his protein) [s⁻¹] | kon (Human CD19-his protein) [M⁻¹ s⁻¹] | Binder |
| --- | --- | --- | --- | --- |
| no binding (tested: 100 nM) | 3.67 | 0.000312 | 85100 | F3.83.9 (antibody, human IgG1, V domains shown, human-murine chimeric antibody, human IgG1 constant) VH: DVQLQESGPGLVKPSQSLSLTCSVTGYSITSGYYWNWIRQFPGNKLEWMGYISYDGGNNYNPSLKNRISITRDTSKNQFFLKLNSVTTEDTATYFCAREDYSNWYFDVWGTGTTVTVSS VL: DIVLTQSPASLAVSLGQRATISCRASQSVSKSSYSYMHWYQQKPGQSPKLLIKYASILKSGVPARFSGSGSGTDFTLNIHPVEEEDTATYYCQHSWEIPWTFGGGTKLEIK |
| no binding (tested: 100 nM) | 0.359 | 8.52e-05 | 237000 | F4.180.1 (antibody, human IgG1, V domains shown, human-murine chimeric antibody, human IgG1 constant) VH: EVQLQQSAPELVKPGASVKMSCKTSGYTFTENIIHWVKQTHGKSLEWIGGINPDNGGTSYHQKFKGRTTLTIDKSSSTAYMELRSLTSDDSAVFFCARQAPLYWYFDIWGAGTTVTVSS VL: DIVLTQSPASLAVSLGQRATISCRASESVDSYGNSLMHWFQQKPGQPPRLLIYRASNLESGIPARFSGSGSRTDFTLTITPVEADDVATYYCQQSNEDPWTFGGGTKLEIK |
| no binding (tested: 100 nM) | 12.4 | 0.00105 | 84800 | F3.113.16 (antibody, human IgG1, V domains shown, human-murine chimeric antibody, human IgG1 constant) VH: QVQLQQPGAELVKPGASVKLSCKASGYTFTNYWMQWVKQRPGQGLEWIGEIDPSDSYINYNQKFKGKATLTADTSSSTAYMQLSSLTYEDSAVYYCARPVTVPWYFDVWGTGTTVTVSS VL: EIVLTQSPTTMAASPGEKITITCSATSSISSNYLHWYQQKPGFSPKLLIYRTSNLASGVPARFSGSGSGTSYSLTIGTMEAEDVATYYCQQGSAIPRIFTFGSGTKLEIK |
| no binding (tested: 100 nM) | 0.337 | 8.9e-05 | 264000 | F4.152.7 (antibody, human IgG1, V domains shown, human-murine chimeric antibody, human IgG1 constant) VH: QVQLQQPGAELVKPGASVKLSCKASGYTFTSYWMHWVKQRPGQGLEWIGEIDPSDSYTNYNQKFKGKATLTADKSSSTAYMQLSGLTSEDSAVYHCARGGDYDGYYVMDYWGQGTSVTVSS VL: EIVLTQSPTTMAASPGEKITITCSASSSISSNYLHWYQQKPGFSPKLLIYRTSNLASGVPARFSGSGSGTSYSLTIGTMEADDVATYYCQQGSYIPRIFTFGSGTKLEIK |
| no binding (tested: 100 nM) | 1.64 | 0.000313 | 191000 | F3.64.4 (antibody, human IgG1, V domains shown, human-murine chimeric antibody, human IgG1 constant) VH: EVQLQQSGPELVKPGASVKISCKASGYTFTDYHINWVKQSHGKSPEWIGDINPNNGGTTYNQKFKDKATLTVDKSSSTAFMELRSLTSEDSAVYYCARFITTVVAWYFDVWGTGTTVTVSS VL: DIQMTQSPASLSVSVGETVTITCRASENIYSNLAWYQQKQGKSPQLLVYAATNLADGVPSRFSGSGSGTQYSLKINSLQSEDFGNYYCQRFWDTPRTFGGGTKLEIK |
| no binding (tested: 100 nM) | 0.734 | 0.000204 | 278000 | F4.125.12 (antibody, human IgG1, V domains shown, human-murine chimeric antibody, human IgG1 constant) VH: EVKLVESGGGLVQPGGSLKLSCAASGFTFSTYTMSWVRQTPEKRLEWVAFISSGGGHINYPDTVKGRFTISRDNAKNTLYLQMSSLKSEDTAMYYCARHSYWFFDVWGAGTTVTVSS VL: DVQITQSPSYLAASPGETITINCRASKNIDTYLAWYQEKPGKTNKLLIYSGSTLQSGIPSRFRGGGSGTDFTLTICSLEPEDFAMYYCQQHNEYPLTFGAGTKLELK |
| no binding (tested: 100 nM) | 3.71 | 0.000918 | 247000 | F4.96.6 (antibody, human IgG1, V domains shown, human-murine chimeric antibody, human IgG1 constant) VH: EIQLQQSGPELVKPGASVKVSCKASGYAFSAYNIYWVKQSHGKSLEWIGYIDPYNSGTTYNQKFRGKATLTVDKSSNTAYMHLSSLTSEDSAVYYCTRDGDAMDYWGQGTSVTVSS VL: EILLTQSPAIIAASPGEKVTITCSASSGVIYMNWYQQKPGSSPKIWIYDVSTLASGVPARFSGSGSGTSFSFTINSMEAEDVATYYCQQRSSYPYTFGGGTKLEIK |
| no binding (tested: 100 nM) | 3.68 | 0.000591 | 161000 | F4.145.9 (antibody, human IgG1, V domains shown, human-murine chimeric antibody, human IgG1 constant) VH: EVQLVESGGGLVKPGGSLKLSCAAAGFAFSSYDMSWVRQIPEKRLEWVAYISAGGGNTYFLDTVKGRFTISRDHAKNTLSLQMSSLKSEDTAMYFCVRHGDYYRYFYAMDYWGQGSSVTVSS VL: DIVMTQSHKFMSTSVGDRVSITCKASQDVGTAVAWSQQKPGQSPKLLIYWASTRHTGVPDRFTGSGSGTDFTLTISNVQSEDLADYFCQQFVTYPYTFGGGTKLEIK |
| no binding (tested: 100 nM) | 8.13 | 0.000526 | 64700 | F3.13.2 (antibody, human IgG1, V domains shown, human-murine chimeric antibody, human IgG1 constant) VH: DVQLQESGPGLMKPSQSLSLTCSVTGYSITSGYYWNWIRQFPGNKLEWMGYISYDGSNNYNPSLKNRFSITRDTSKNQFFLKLNSVTTEDTATYYCARRKLTGGPYFDYWGQGTTLTVSS VL: DIVLTQSPASLAVTLGQRATISCRASESVSFHGFHIMHWYQQKPGQPPKLLIYAASHLVSGVPDRFSGSGSETDFTLNIHPVEEEDAAAYFCQQSVEDPWTFGGGTKLEIK |
| no binding (tested: 100 nM) | 0.766 | 0.000104 | 135000 | F3.81.2 (antibody, human IgG1, V domains shown, human-murine chimeric antibody, human IgG1 constant) VH: QVQLQQPGAELVMPGASVKLSCKASAYTFTNYWMHWVKQRPGHGLEWIGEIDPSDSYTDYNQNFKAKATLTVDKSSSTAYMQLSSLTSEDSAVYYCARLMGRYFDVWGTGTTVTVSS VL: DIVMTQSHKFMSTSVGDRVSITCKASQDVSAAVAWYQQKPGQSPKLLINSASYRYTGVPDRFTGSGSGTDFTFTISSVQAEDLAVYYCQQHYSTPLTFGAGTKLELR |
| no binding (tested: 100 nM) | 13 | 0.000799 | 61300 | F3.126.15 (antibody, human IgG1, V domains shown, human-murine chimeric antibody, human IgG1 constant) VH: QVQLQQPGAELVMPGASVKLSCKASGYTFTSYWMHWVKQRPGQGLEWIGEIDPSDSYTTYNQNFKGKATLTVDISTSTAYIQLSNLTSEDSAVYYCARLTGNYIHYWGQGTTLTVSS VL: DIVMTQSHKFMSTSVGDRVSITCKASQDVSPAVAWYQQRPGQCPKLLIFSSSYRSTGVPDRFTGSGSGTDFTFTISSVQAEDLAVYYCQQHYSLPLTFGAGTKLELK |
| no binding (tested: 100 nM) | 1.9 | 0.000388 | 205000 | F4.191.1 (antibody, human IgG1, V domains shown, human-murine chimeric antibody, human IgG1 constant) VH: QVQLQQPGAELVRPGASVKLSCKASGYTFTSYWINWVKQRPGQGLEWIGNIHPSDSYTNYNQKFKDKATLTVDKSSSTAYMQFSSPTSEDSAVYYCTREDYYYGSNYDAMDYWGQGTSVTVSS VL: DIVMTQSHKFMSTSVGDRVNITCKASQDVGSSVAWYQQKPGQSPKLLIYWASTRHAGVPDRFTGSGSGADFTLTISNVQSEDLADYFCQQYSTYPLTFGAGTKLELK |
| no binding (tested: 100 nM) | 1.09 | 0.000217 | 200000 | F4.107.12 (antibody, human IgG1, V domains shown, human-murine chimeric antibody, human IgG1 constant) VH: EVQLQQSGPELVKPGASVKMSCKASGYTFTSYVLHWVRQKPGQGLEWIGYFNPYNDGTEYNEKFKGKAILTSDKSSSTAYMELNSLTSEDSAVYYCVGGTYYYGSSYPFAYWGQGTLVTVST VL: DVVMTQISLSLPVSLGDQASISCRSSQSLIHSNGNTYLQWYLQKPGQSPKLLIYKVSNRLSGVPDRFSGSGSGTDFTLKISRVEAEDLGVYFCSQSTHVPYTFGGGTKLEIK |
| no binding (tested: 100 nM) | 9.47 | 0.0019 | 201000 | F4.4.6 (antibody, human IgG1, V domains shown, human-murine chimeric antibody, human IgG1 constant) VH: QVQLQQSGAELARPGASVKLSCKASGYTFTSYWMQWVKQRPGQGLEWIGAIYPGDGDSRYTQKFKGKATLTADKSSSTAYMQLSSLASEDSAVYYCARSTTTVLGNNFEYWGQGTTLTVSS VL: QIVLTQSPAIMSALPGEKVTMTCSASSSVSSMHWYQQKSGTSPKRWIYDTSKLASGVPARFSGSGSGTSYSLTISSMEAEDAATYYCQQWSSNPWTFGGGTKLEIK |
